Test results from IntAct's records for PubMed 21944579.

B1: Sclerostin (Homo sapiens), Q9BQB4 (parent)
chain: MQLPLALCLVCLLVHTAFRVVEGQGWQAFKNDATEIIPELGEYPEPPPELENNKTMNRAENGGRPPHHPFETKDVSEYSCRELHFTRYVTDGPCRSAKPVTELVCSGQCGPARLLPNAIGRGKWWRPSGPDFRCIPDRYRAQRVQLLCPGGEAPRARKVRLVASCKCKRLTRFHNQSELKDFGTEAARPQKGRKPRPRARSAKANQAELENAY
B2: Low-density lipoprotein receptor-related protein 6 (Homo sapiens), O75581 (parent)
chain: MGAVLRSLLACSFCVLLRAAPLLLYANRRDLRLVDATNGKENATIVVGGLEDAAAVDFVFSHGLIYWSDVSEEAIKRTEFNKTESVQNVVVSGLLSPDGLACDWLGEKLYWTDSETNRIEVSNLDGSLRKVLFWQELDQPRAIALDPSSGFMYWTDWGEVPKIERAGMDGSSRFIIINSEIYWPNGLTLDYEEQKLYWADAKLNFIHKSNLDGTNRQAVVKGSLPHPFALTLFEDILYWTDWSTHSILACNKYTGEGLREIHSDIFSPMDIHAFSQQRQPNATNPCGIDNGGCSHLCLMSPVKPFYQCACPTGVKLLENGKTCKDGATELLLLARRTDLRRISLDTPDFTDIVLQLEDIRHAIAIDYDPVEGYIYWTDDEVRAIRRSFIDGSGSQFVVTAQIAHPDGIAVDWVARNLYWTDTGTDRIEVTRLNGTMRKILISEDLEEPRAIVLDPMVGYMYWTDWGEIPKIERAALDGSDRVVLVNTSLGWPNGLALDYDEGKIYWGDAKTDKIEVMNTDGTGRRVLVEDKIPHIFGFTLLGDYVYWTDWQRRSIERVHKRSAEREVIIDQLPDLMGLKATNVHRVIGSNPCAEENGGCSHLCLYRPQGLRCACPIGFELISDMKTCIVPEAFLLFSRRADIRRISLETNNNNVAIPLTGVKEASALDFDVTDNRIYWTDISLKTISRAFMNGSALEHVVEFGLDYPEGMAVDWLGKNLYWADTGTNRIEVSKLDGQHRQVLVWKDLDSPRALALDPAEGFMYWTEWGGKPKIDRAAMDGSERTTLVPNVGRANGLTIDYAKRRLYWTDLDTNLIESSNMLGLNREVIADDLPHPFGLTQYQDYIYWTDWSRRSIERANKTSGQNRTIIQGHLDYVMDILVFHSSRQSGWNECASSNGHCSHLCLAVPVGGFVCGCPAHYSLNADNRTCSAPTTFLLFSQKSAINRMVIDEQQSPDIILPIHSLRNVRAIDYDPLDKQLYWIDSRQNMIRKAQEDGSQGFTVVVSSVPSQNLEIQPYDLSIDIYSRYIYWTCEATNVINVTRLDGRSVGVVLKGEQDRPRAVVVNPEKGYMYFTNLQERSPKIERAALDGTEREVLFFSGLSKPIALALDSRLGKLFWADSDLRRIESSDLSGANRIVLEDSNILQPVGLTVFENWLYWIDKQQQMIEKIDMTGREGRTKVQARIAQLSDIHAVKELNLQEYRQHPCAQDNGGCSHICLVKGDGTTRCSCPMHLVLLQDELSCGEPPTCSPQQFTCFTGEIDCIPVAWRCDGFTECEDHSDELNCPVCSESQFQCASGQCIDGALRCNGDANCQDKSDEKNCEVLCLIDQFRCANGQCIGKHKKCDHNVDCSDKSDELDCYPTEEPAPQATNTVGSVIGVIVTIFVSGTVYFICQRMLCPRMKGDGETMTNDYVVHGPASVPLGYVPHPSSLSGSLPGMSRGKSMISSLSIMGGSSGPPYDRAHVTGASSSSSSSTKGTYFPAILNPPPSPATERSHYTMEFGYSSNSPSTHRSYSYRPYSYRHFAPPTTPCSTDVCDSDYAPSRRMTSVATAKGYTSDLNYDSEPVPPPPTPRSQYLSAEENYESCPPSPYTERSYSHHLYPPPPSPCTDSS
partner: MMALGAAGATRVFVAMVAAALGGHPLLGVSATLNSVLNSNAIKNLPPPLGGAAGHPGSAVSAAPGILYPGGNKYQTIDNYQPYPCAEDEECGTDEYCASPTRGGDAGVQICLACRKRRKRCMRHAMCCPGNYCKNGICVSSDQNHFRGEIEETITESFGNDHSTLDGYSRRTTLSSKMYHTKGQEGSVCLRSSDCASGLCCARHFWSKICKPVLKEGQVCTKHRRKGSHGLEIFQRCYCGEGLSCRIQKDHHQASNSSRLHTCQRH
B3: Low-density lipoprotein receptor-related protein 6 (Homo sapiens), O75581 (parent)
chain: B2 chain
B4: Dickkopf-related protein 1 (Homo sapiens), O94907 (parent)
chain: B2 partner

Variants of: B1
Details: with lrp6_human LRP6, O75581

| effect of a mutation on the interaction | Variant |
| --- | --- |
| decreasing interaction | N117A |
| decreasing interaction | I119E |

Variants of: B2
Details: with dkk1_human DKK1, O94907

| Variant | effect of a mutation on the interaction |
| --- | --- |
| N185S | disrupting interaction |
| A229T | disrupting interaction |

More lines, now with the values ahead:

| effect of a mutation on the interaction | Variant |
| --- | --- |
| disrupting interaction | D98Y |
| disrupting interaction | R141M |
| disrupting interaction | A201V |

Variants of: B3
Details: with sost_human SOST

| effect of a mutation on the interaction | Variant |
| --- | --- |
| disrupting interaction | A201V |
| disrupting interaction | A229T |
| disrupting interaction | R141M |
| disrupting interaction | D98Y |
| disrupting interaction | N185S |

Variants of: B4
Details: with lrp6_human LRP6, O75581

| effect of a mutation on the interaction | Variant |
| --- | --- |
| disrupting interaction | MMALGAAGATRVFVAMVAAALGGHPLLGVSATLNSVLNSNAEKNLPPPLGGAAGHPGSAVSAAPGILYPGGNKYQTIDNYQPYPCAEDEECGTDEYCASPTRGGDAGVQICLACRKRRKRCMRHAMCCPGNYCKNGICVSSDQNHFRGEIEETITESFGNDHSTLDGYSRRTTLSSKMYHTKGQEGSVCLRSSDCASGLCCARHFWSKICKPVLKEGQVCTKHRRKGSHGLEIFQRCYCGEGLSCRIQKDHHQASNSSRLHTCQRH [I42E] |
| decreasing interaction | MMALGAAGATRVFVAMVAAALGGHPLLGVSATLNSVLNSAAIKNLPPPLGGAAGHPGSAVSAAPGILYPGGNKYQTIDNYQPYPCAEDEECGTDEYCASPTRGGDAGVQICLACRKRRKRCMRHAMCCPGNYCKNGICVSSDQNHFRGEIEETITESFGNDHSTLDGYSRRTTLSSKMYHTKGQEGSVCLRSSDCASGLCCARHFWSKICKPVLKEGQVCTKHRRKGSHGLEIFQRCYCGEGLSCRIQKDHHQASNSSRLHTCQRH [N40A] |

Variants of: B4
Details: with lrp6_human LRP6, O75581
Remark: another data set of the same source

| effect of a mutation on the interaction | Variant |
| --- | --- |
| disrupting interaction | MMALGAAGATRVFVAMVAAALGGHPLLGVSATLNSVLNSNAIKNLPPPLGGAAGHPGSAVSAAPGILYPGGNKYQTIDNYQPYPCAEDEECGTDEYCASPTRGGDAGVQICLACRKRRKRCMRHAMCCPGNYCKNGICVSSDQNHFRGEIEETITESFGNDHSTLDGYSRRTTLSSKMYHTKGQEGSVCLRSSDCASGLCCARHFWSKICEPVLKEGQVCTKHRRKGSHGLEIFQRCYCGEGLSCRIQKDHHQASNSSRLHTCQRH [K211E] |
| disrupting interaction | MMALGAAGATRVFVAMVAAALGGHPLLGVSATLNSVLNSNAIKNLPPPLGGAAGHPGSAVSAAPGILYPGGNKYQTIDNYQPYPCAEDEECGTDEYCASPTRGGDAGVQICLACRKRRKRCMRHAMCCPGNYCKNGICVSSDQNHFRGEIEETITESFGNDHSTLDGYSRRTTLSSKMYHTKGQEGSVCLRSSDCASGLCCAREFWSKICKPVLKEGQVCTKHRRKGSHGLEIFQRCYCGEGLSCRIQKDHHQASNSSRLHTCQRH [H204E] |
